Assay results taken from US10759863B2, “Modulation of γδ T cells” (Sanford Burnham Prebys Medical Discovery Institute, priority 2013, dated 2020).

Tests used:
[1] = test system: RORγt; assay: Digoxin treatment of RORγt-expressing Jurkat cells, BTLA expression; type: cell-based; conditions: digoxin vs DMSO, 24-48 hrs, FIG. 11B
Experimental: (§1) Surface staining was performed on ice for 20-30 min. Intracellular staining was performed using the BD Cytofix/Cytoperm™ Kit according the manufacturer's instructions (BD Biosciences). Stained cells were acquired using a BD LSRFortessa™ equipped with 4 lasers (blue at 488 nm, yellow-green at 561 nm, red at 640 nm, violet at 405 nm). Antibodies in SI.
For qRT-PCR analysis, total RNA was prepared from FACS sorted populations using the Qiagen RNeasy Mini kit according to the manufacturer's instructions (Qiagen, Valencia, Calif.). RNA was reverse transcribed into cDNA using the iScript™ cDNA synthesis kit (Bio-Rad Laboratories, Hercules, Calif.) according to the manufacturer's instructions. Target genes were detected using intron-spanning primers (Invitrogen) and relative expression was measured using Power® SYBR Master mix (Life Technologies, Grand Island, N.Y.). Reactions were carried out in clear 384 plates using an ABI® 7900 Real-Time PCR System (Life Technologies). We calculated relative expression as follows: 2^−Dct, where Ct=cycle number, DCt=Ct (target gene)−Ct (house-keeping gene). A value of 1 means equal expression of target and house-keeping gene (L32). Oligo sequences (5′-3′):
Jurkat cells were cultured at 10^5/100 μl in U-bottom wells for 24-48 hrs with either DMSO or the indicated concentrations of digoxin (Sigma-Aldrich). […]

[2] = test system: BTLA expression in γδT cells and ILCs; assay: Cytokine-induced BTLA expression in cultured iLN γδT cells and PP ILCs; type: cell-based, mice; conditions: for BTLA induction in RORγt+ γδT cells after culture with activating cytokines: iLN lymphocytes of Rorc(t)gfp/+ mice enriched for CD27− γδT cells, FIG. 17A
Experimental: as §1
(§2) For IL-7 induced expansion iLN lymphocytes were cultured in RF10 media (RPMI+10% FBS, p/s, L-Glutamine) at 10^7/ml in 12-well plates for four days. For IL-7 induced BTLA expression iLN or PP lymphocytes were enriched for ILCs and CD27^− γδT cells and cultured in RF10 media in 24-well plates containing feeder adherent cells for two days. Following enrichment, cells from 3 animals were cultured in 1 ml in a single well. IL-7 (R&D Systems, Minneapolis, Minn.) was added at 10 ng/ml. For IL-17 and TNF production whole lymph node cells were cultured with or without 10 ng/ml IL-7 for 18 hours and then re-stimulated with PMA (50 ng/ml), ionomycin (750 ng/ml) and Golgi Stop™ (BD Biosciences) for 3.5 hours. TH17 differentiation was performed by isolating CD4^+ T cells from spleens and culturing in anti-CD3 (5 μg/ml) coated 24-well plates at 1.35×10^6/ml with anti-CD28 (2 μg/ml), IL-6 (20 ng/ml) and TGFβ1 (2 ng/ml). At day 5, cells were washed and re-stimulated with PMA+ionomycin and Golgi Stop™ (BD Biosciences) for 3.5 hours. For induction of human IL-22, tonsil lymphocytes were cultured in RF10 media at 1.5×10^6/ml in 24-well plates for 6 hours in the presence of 40 ng/ml IL-23 (eBiosciences) and 10 ng/ml IL-1β (R&D Systems). Golgi Stop™ (BD Biosciences) was added during the final 3 hours.
Jurkat cells were cultured at 10^5/100 μl in U-bottom wells for 24-48 hrs with either DMSO or the indicated concentrations of digoxin (Sigma-Aldrich). To test the effect of STAT5 in IL-7-induced BTLA expression, CD27^− gd T cells were enriched from lymph nodes of Rorc(t)^gfp/+ mice and cultured for two days in 24-well plates containing feeder adherent cells with no stimulus, or with IL-7 in the presence or absence of STAT inhibitor (EMD Millipore, Billerica, Mass.) at the indicated concentrations.

[3] = test system: γδT cells; assay: IL-7 induced expansion of iLN lymphocytes cultured ex vivo; type: cell-based, mice; conditions: IL-7 10 ng/ml, four days, vs untreated cultures; FIG. 4A
Experimental: as §2

[4] = test system: γδT cells; assay: IL-17 and TNF production by lymph node γδT cells with or without IL-7; type: cell-based, mice; conditions: all γδT subsets, IL-7 10 ng/ml 18 hours then PMA/ionomycin; FIG. 5
Experimental: as §1
as §2, with “For induction of human IL-22, tonsil lymphocytes were cultured in RF10 media at 1.5×10^6/ml in 24-well plates for 6 hours in the presence of 40 ng/ml IL-23 (eBiosciences) and 10 ng/ml IL-1β (R&D Systems). Golgi Stop™ (BD Biosciences) was added during the final 3 hours.” left out

[5] = iLN γδT cells and PP ILCs from Rorc(t)gfp/+ mice, IL-7 10 ng/ml, two days, vs untreated, FIG. 4G-K

C[C@H]1O[C@@H](O[C@H]2[C@@H](O)C[C@H](O[C@H]3[C@@H](O)C[C@H](O[C@H]4CC[C@@]5(C)[C@H](CC[C@@H]6[C@@H]5C[C@@H](O)[C@]5(C)[C@@H](C7=CC(=O)OC7)CC[C@]65O)C4)O[C@@H]3C)O[C@@H]2C)C[C@H](O)[C@@H]1O [digoxin]
BTLA expression at the mRNA level [1]: induced expression of BTLA
BTLA expression at the protein level (surface expression) [1]: induced expression of BTLA

IL-1β: cytokine, potent γδT cell activator
BTLA induction in RORγt+ γδT cells after culture with activating cytokines [2]: either no or only a minimal effect

B1: IL-7: cytokine IL-7 (R&D Systems), added at 10 ng/ml (protein, UniProt P13232 26-177, looked up)
Interleukin-7: DCDIEGKDGKQYESVLMVSIDQLLDSMKEIGSNCLNNEFNFFKRHICDANKEGMFLFRAARKLRQFLKMNSTGDFDLHLLKVSEGTTILLNCTGQVKGRKPAALGEAQPTKSLEENKSLKEQKKLNDLCFLKRLLQEIKTCWNKILMGTKEH
number of BTLA+ cells [2, 5]: induced a higher number
surface BTLA expression [2, 5]: increased
viability of γδT cells within lymph node lymphocytes cultured ex vivo [3]: sustained viability
frequency of IL-17 expressing γδT cells [4]: enhanced
frequency of TNF expressing γδT cells [4]: enhanced

B2: IL-23: cytokine, potent γδT cell activator (protein, UniProt Q9NPF7 20-189; P29460 23-328, looked up)
Interleukin-23 subunit alpha: RAVPGGSSPAWTQCQQLSQKLCTLAWSAHPLVGHMDLREEGDEETTNDVPHIQCGDGCDPQGLRDNSQFCLQRIHQGLIFYEKLLGSDIFTGEPSLLPDSPVGQLHASLLGLSQLLQPEGHHWETQQIPSLSPSQPWQRLLLRFKILRSLQAFVAVAARVFAHGAATLSP
Interleukin-12 subunit beta: IWELKKDVYVVELDWYPDAPGEMVVLTCDTPEEDGITWTLDQSSEVLGSGKTLTIQVKEFGDAGQYTCHKGGEVLSHSLLLLHKKEDGIWSTDILKDQKEPKNKTFLRCEAKNYSGRFTCWWLTTISTDLTFSVKSSRGSSDPQGVTCGAATLSAERVRGDNKEYEYSVECQEDSACPAAEESLPIEVMVDAVHKLKYENYTSSFFIRDIIKPDPPKNLQLKPLKNSRQVEVSWEYPDTWSTPHSYFSLTFCVQVQGKSKREKKDRVFTDKTSATVICRKNASISVRAQDRYYSSSWSEWASVPCS
BTLA induction in RORγt+ γδT cells after culture with activating cytokines [2]: either no or only a minimal effect
